Data from patent US20240288416A1 (RIJKSUNIVERSITEIT GRONINGEN, published 2024).

Target: T1, artificial PA28-nanopore
T1 construct: also called PA-nanopore; PA nanopore
Assay: single-channel electrical recording in a planar lipid bilayer, 1 M NaCl

B1: 20S proteasome from Thermoplasma acidophilum (enzyme)
chain 1: MQQGQMAYDRAITVFSPDGRLFQVEYAREAVKKGSTALGMKFANGVLLISDKKVRSRLIEQNSIEKIQLIDDYVAAVTSGLVADARVLVDFARISAQQEKVTYGSLVNIENLVKRVADQMQQYTQYGGVRPYGVSLIFAGIDQIGPRLFDCDPAGTINEYKATAIGSGKDAVVSFLEREYKENLPEKEAVTLGIKALKSSLEEGEELKAPEIASITVGNKYRIYDQEEVKKFL
chain 2: TTTVGITLKDAVIMATERRVTMENFIMHKNGKKLFQIDTYTGMTIAGLVGDAQVLVRYMKAELELYRLQRRVNMPIEAVATLLSNMLNQVKYMPYMVQLLVGGIDTAPHVFSIDAAGGSVEDIYASTGSGSPFVYGVLESQYSEKMTVDEGVDLVIRAISAAKQRDSASGGMIDVAVITRKDGYVQLPTDQIESRIRKLGLIL
notes: also called the proteasome; T. acidophilum proteasome
- binding result: no binding
